Source: PMC10716038, “Talin and kindlin use integrin tail allostery and direct binding to activate integrins” (Nature Structural & Molecular Biology, 2023)
No end group written: not given here.

T1: kindlin-2 (KIND2) (UniProt Q8CIB5 1-680)
T1 chain: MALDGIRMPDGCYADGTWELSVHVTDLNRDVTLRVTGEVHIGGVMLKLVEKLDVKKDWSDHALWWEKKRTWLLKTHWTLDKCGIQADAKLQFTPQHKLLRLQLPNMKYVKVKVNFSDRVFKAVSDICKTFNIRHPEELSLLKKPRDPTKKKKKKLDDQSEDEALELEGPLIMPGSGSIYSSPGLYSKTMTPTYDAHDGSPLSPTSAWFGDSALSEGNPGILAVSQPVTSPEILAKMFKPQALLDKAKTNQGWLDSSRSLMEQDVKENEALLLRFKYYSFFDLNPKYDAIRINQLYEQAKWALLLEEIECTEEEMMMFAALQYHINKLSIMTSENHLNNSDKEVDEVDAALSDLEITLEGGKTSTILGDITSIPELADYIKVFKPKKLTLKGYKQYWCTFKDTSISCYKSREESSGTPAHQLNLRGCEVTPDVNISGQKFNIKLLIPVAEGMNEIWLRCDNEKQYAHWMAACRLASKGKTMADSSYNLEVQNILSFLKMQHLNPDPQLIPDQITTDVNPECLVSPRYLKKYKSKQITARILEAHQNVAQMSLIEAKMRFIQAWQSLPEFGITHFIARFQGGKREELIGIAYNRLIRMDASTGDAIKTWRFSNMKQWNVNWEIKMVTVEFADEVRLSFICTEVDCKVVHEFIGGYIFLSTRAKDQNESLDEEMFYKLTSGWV

T2: talin-1 head domain (THD1) (UniProt P26039 1-405)
T2 chain: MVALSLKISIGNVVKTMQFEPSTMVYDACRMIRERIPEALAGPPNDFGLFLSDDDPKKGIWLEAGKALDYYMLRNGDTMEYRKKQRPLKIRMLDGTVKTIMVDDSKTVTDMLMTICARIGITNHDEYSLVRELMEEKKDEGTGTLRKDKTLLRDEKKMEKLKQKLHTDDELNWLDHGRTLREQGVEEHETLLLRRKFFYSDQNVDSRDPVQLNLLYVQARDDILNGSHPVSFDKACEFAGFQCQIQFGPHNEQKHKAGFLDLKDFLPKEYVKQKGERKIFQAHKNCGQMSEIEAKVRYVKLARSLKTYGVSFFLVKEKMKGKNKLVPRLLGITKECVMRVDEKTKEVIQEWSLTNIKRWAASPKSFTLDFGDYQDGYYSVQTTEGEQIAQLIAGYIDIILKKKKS

T3: talin-2 head domain (THD2) (UniProt Q71LX4 1-408)
T3 chain: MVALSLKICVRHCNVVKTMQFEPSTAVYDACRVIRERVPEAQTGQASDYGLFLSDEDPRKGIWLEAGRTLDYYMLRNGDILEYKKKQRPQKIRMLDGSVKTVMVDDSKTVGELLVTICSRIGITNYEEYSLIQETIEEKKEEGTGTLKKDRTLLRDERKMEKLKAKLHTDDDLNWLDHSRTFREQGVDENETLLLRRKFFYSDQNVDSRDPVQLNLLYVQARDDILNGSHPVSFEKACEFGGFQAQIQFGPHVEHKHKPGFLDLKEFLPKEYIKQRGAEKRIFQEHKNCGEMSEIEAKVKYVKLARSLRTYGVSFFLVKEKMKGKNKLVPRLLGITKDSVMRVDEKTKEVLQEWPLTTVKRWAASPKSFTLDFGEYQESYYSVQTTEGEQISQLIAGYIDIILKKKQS

T4: TLN1-F3–ΔKIND2 fusion protein
T4 chain: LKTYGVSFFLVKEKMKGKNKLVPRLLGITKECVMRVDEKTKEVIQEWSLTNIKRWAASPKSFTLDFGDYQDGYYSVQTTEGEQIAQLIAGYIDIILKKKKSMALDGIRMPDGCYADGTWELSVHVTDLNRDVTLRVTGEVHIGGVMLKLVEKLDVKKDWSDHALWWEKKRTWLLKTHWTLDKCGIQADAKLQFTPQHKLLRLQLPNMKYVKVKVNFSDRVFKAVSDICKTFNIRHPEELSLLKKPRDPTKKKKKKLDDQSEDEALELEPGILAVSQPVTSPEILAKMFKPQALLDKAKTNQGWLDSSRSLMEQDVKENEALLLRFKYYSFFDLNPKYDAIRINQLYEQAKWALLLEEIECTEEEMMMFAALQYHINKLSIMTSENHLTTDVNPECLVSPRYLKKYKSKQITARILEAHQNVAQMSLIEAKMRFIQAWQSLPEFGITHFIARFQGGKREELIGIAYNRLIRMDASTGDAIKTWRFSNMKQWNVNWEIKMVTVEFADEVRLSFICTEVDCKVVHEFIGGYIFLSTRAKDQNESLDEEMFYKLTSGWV

T5: TLN1-F3–ΔKIND2^Y13A fusion protein
T5 chain: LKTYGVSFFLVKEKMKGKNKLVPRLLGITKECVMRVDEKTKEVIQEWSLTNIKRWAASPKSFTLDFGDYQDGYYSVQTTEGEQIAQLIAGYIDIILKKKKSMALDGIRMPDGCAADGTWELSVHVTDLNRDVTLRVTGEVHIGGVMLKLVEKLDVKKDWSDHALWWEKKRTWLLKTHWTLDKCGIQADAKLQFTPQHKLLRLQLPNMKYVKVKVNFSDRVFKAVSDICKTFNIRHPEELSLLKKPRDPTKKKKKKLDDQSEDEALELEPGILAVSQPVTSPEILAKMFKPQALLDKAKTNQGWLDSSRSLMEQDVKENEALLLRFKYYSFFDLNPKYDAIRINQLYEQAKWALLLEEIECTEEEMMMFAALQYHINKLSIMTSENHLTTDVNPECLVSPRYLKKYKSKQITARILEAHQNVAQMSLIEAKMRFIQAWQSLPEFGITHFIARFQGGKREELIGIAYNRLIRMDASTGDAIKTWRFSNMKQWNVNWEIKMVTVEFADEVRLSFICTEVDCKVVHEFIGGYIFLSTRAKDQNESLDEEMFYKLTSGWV

T6: kindlin-2 (KIND2) (UniProt Q8CIB5 1-680)
T6 construct: kindlin-2 (KIND2) without the deletions of ΔKIND2; In FC-RDA a copy labelled with Alexa 647 (647–KIND2) was the reporter; also called 647–KIND2; source: E. coli Rosetta, purified (IMAC, SEC); not shown: His10, N-terminal, cleaved; SUMO, N-terminal, cleaved
T6 sequence (looked up): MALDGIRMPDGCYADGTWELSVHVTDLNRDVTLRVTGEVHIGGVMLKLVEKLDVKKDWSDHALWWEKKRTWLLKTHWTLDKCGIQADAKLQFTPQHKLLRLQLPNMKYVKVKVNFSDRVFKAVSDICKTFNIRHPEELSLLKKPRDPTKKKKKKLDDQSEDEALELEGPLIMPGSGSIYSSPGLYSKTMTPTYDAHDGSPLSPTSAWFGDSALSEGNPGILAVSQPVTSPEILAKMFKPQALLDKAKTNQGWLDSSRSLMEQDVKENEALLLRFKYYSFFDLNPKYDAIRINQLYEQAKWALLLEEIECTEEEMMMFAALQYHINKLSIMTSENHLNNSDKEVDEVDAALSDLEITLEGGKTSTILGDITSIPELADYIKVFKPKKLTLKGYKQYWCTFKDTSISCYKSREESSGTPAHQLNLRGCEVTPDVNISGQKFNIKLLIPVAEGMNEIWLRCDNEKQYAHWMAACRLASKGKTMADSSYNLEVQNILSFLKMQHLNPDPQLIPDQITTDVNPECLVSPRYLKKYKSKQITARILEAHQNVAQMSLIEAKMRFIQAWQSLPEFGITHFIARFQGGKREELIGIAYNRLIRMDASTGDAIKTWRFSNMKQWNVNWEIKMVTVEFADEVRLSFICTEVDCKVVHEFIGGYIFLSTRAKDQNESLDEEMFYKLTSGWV


Legend:
kindlin-2 (KIND2) [1] = molecular target: T1, kindlin-2 (KIND2); assay: MST
[2] = molecular target: T2, talin-1 head domain (THD1); assay: MST
[3] = molecular target: T3, talin-2 head domain (THD2); assay: MST
kindlin-2 (KIND2) [4] = molecular target: T1, kindlin-2 (KIND2); assay: MST
kindlin-2 (KIND2) [5] = molecular target: T1, kindlin-2 (KIND2); assay: MST; apparent, with THD1
[6] = molecular target: T4, TLN1-F3–ΔKIND2 fusion protein; assay: MST; TLN1-F3 contribution
[7] = molecular target: T5, TLN1-F3–ΔKIND2^Y13A fusion protein; assay: MST; TLN1-F3 contribution
[8] = molecular target: T2, talin-1 head domain (THD1); assay: MST; apparent, with KIND2
kindlin-2 (KIND2) [9] = molecular target: T6, kindlin-2 (KIND2); assay: NMR titration; 15N-labelled TLN1-F3 observed in the presence of β1-CT at saturating concentration (200 µM) with 75 µM KIND2 added; 298 K; conditions: both partners purified

Kd (kindlin-2 (KIND2) [1])	Kd [2]	Kd [3]	Kd (kindlin-2 (KIND2) [4])	Kd (kindlin-2 (KIND2) [5])	Kd [6]	Kd [7]	Kd [8]	binding result (kindlin-2 (KIND2) [9])	Binder
2.9 µM	140 µM	25 µM	3 µM	42 µM	25.3 µM	15.7 µM	153 µM		{ATTO 488}-KLLMIIHDRREFAKFEKEKMNAKWDTGENPIYKSAVTTVVNPKYEGK [ATTO 488-labelled β1-CT (488–β1-CT)]
								binds	F3 domain of TLN1 (TLN1-F3) (domain or fragment, UniProt P26039 305-405, looked up, Used unlabelled, 15N-labelled or partially deuterated in NMR; also called T1-F3; source: E. coli (DE3) Rosetta 2, purified (IMAC, SEC); not shown: His10, N-terminal, cleaved; SUMO, N-terminal, cleaved) LKTYGVSFFLVKEKMKGKNKLVPRLLGITKECVMRVDEKTKEVIQEWSLTNIKRWAASPKSFTLDFGDYQDGYYSVQTTEGEQIAQLIAGYIDIILKKKKS
